The source of these data is the DeepSol protein solubility set.

This data set is described as follows: soluble on expression in E. coli; label from the status in PepcDB or PDB records.
For “MGSDKIHHHHHHAVQNTITIRSRGAKVYNKNGNAIVDARDKNIVLKEGTVAEYYGEPKYMVWRGHKKASFYNIGGNRYLLGYNVASLNDKGTLSIYRDSYIYDKTGKRVEKNTVLRKGTAINYVDKLNEKIETEKNLPKFYYYNMAIQRTHEGMLWVKYSVLSVKYHIINGKEYYKIANNKYIRATNIGYINGRQLFTTEATVTMGKATTKDGKYYARNMNGKITKTILPYKPGQKVVVDRSFQHSSKSFWRIKGTNYYIFGPDIKKFPIQALRR”, the “soluble on expression in E. coli” value is “not soluble”.
Take “MLNGSCLCGRVAYTVDGPLADVVNCHCAMCRKAHGAAFRTRATVRAEHFAFVRGESDITWYSSSPGNYRGFCSACGTPLLSRFDQTPDVYALPLGALDDDPGVKAACHVYVAHKAPWHDITDDLPRHPEGRPG”: the “soluble on expression in E. coli” value is given as “not soluble”.
On to “EIVMTQSPATLSVSPGERATLSCRASQSIGNNLHWYQQKPGQAPRLLIYYASQSISGIPARFSGSGSGTEFTLTISSLQSEDFAVYYCQQSNSWPYTFGGGTKVEIK”, for which the “soluble on expression in E. coli” value is recorded as “soluble”.
Regarding “MREKLTVIKVGGKIVEEEATLLQLLNDFAAISGHKVLVHGGGRSATKIAAQLGIESKMVNGRRITDAETLKVVTMVYGGLVNKNIVAGLQARGVNALGLTGADMNVIRSVKRPVKEVDYGFVGDVEKVDASLLADLIHKGVVPVMAPLTHDGQGNMLNTNADTIAGETAKALSALFDVTLVYCFEKKGVLRDENDDDSVIPEITRAEFEQYVADGVIQGGMIPKLENSFEAINAGVTEVVITLASAIKDNEGTRIKK”, the “soluble on expression in E. coli” value was “not soluble”.
For the sequence “GPGSMLHRSLACFAVPADRKAFMELVKTLRYRTEAPISDCSAALKETDGDMDAAMQVLRKRGAARAMKKGDRVTEHGFVVSCVGSTPQSGAAIVTICSETDFAARNEHFQRVCMQVRDQLCKLMDATNGAVLANPEEAVKHLSDVMAEELRVAIAVLGENMRVRSIAPLVPAPHVSERLLIGSYTHGSLNVDNVGRIVGLVALSQVRENEVVPKDVLTSVGRHFVATSGAEGNYAHQNFFGSETETVGKWLKQRGLKFSSSLVQEFGKEPVVHTAPEPHR”, the “soluble on expression in E. coli” value is listed as “not soluble”.
With “MFRQLSELYISTLKEAKERSPPNFDDTPRGLLLALIKDRPTIWNSSARLTKDDVLASFQQCSAILSNMDPGYSIWAVIEKWCWVVESYVRCSVTAPPSEWRYNNTLDYLKQFATTSYPYLGCLSKKRRNELTKLYNDPEINVVMQKTEEIEFPVGIFRDEMLYLSGEDHLMQYDLELRTVGQVVNAKRRGRPSKVDKRSPVDNFYNLTPQSAQFQKLLESNMSSAFSIAFAESELIPDDLGFSPAMYMALIDMIQDKPELWQSNHPQKDNLQAQEQLFEDFGKQLIIKFRDTADISVLEKLTGPYVHLVWERLLEKFKEEDSLETVSKWKYYQVGSAGLSARLAIASPSGSSQSEDSRMAASSPSTAFIGMPTTINGNKSIQTVLDNLIAARSKKEDHAASTTSVLQAPNYSELKQMLEKNNILKVDNENGPPLKRVKQEIESPPGSSRMIVYNDTRKTTNAPISTWVPPREDLTAKVKDETVQSVPQRKAQATAVIKSGFPLEKHLKKQAVPSMIPVTSSSIPQRNGILGLNSMILPPSAIQQALLKKMDVPTTTPSMSSTSSSQAQSSMNGVINGNNTEVEDKWTLLGRMIAMMAREIETRDPMSACELTRDLQQVIFQYNMKTLRPKENNSSSSSQ”, the “soluble on expression in E. coli” value is “not soluble”.
Consider “MGSDKIHHHHHHMINIFKPRTLTFYLVKSMDVLELLSELVSFNTVNDPNKGIKPSKECPRFIKDQLDSWDIESEIIERSGYYAVYGEIGDGTPRLLFMAHFDVVPVNLEEWETDPFELTIKENKAYGRGSADDKGNVAAVMLALKELSKEEKLNGRVIFAFTGDEEIGGAMAMHIAEKLSKEGKVPKYMINADGIGMKPIIRRRKGFGVEIKVYPRKVKVKGRVREIEFEPKTPVVETRHAAYFLPGVDTHPMVALSHFLRNSNAVAISLDGAFIKGNVIPGKVKLKYVEPGEGEEVEGDLSLTALLKAIVPIVRAPIKAEKYSDYGVSITPNVYSFDGSHVLKVDVRAMSYSKDDIEKTLREVLNFNLPEAELIIKENEKAGYLFTSPDDELVRVTLRILKELGEDVEPIEGPGASDSRYFTPLGVKAIDIGPRGGNIHGPNEYVEVDSLRKMPEIYRRIALSLLL”, for which the “soluble on expression in E. coli” value is given as “not soluble”.
Turning to “MGSSHHHHHHSSGLVPRGSHMYHHYHAFQGRKLTDQERARVLEFQDSIHYSPRYSDDNYEYRHVMLPKAMLKVIPSDYFNSEVGTLRILTEDEWRGLGITQSLGWEHYECHAPEPHILLFKRPLNYEAELRAATAAAQQQQQQQQQQQQQQQQHQTQSISNDMQVPPQIS”, the “soluble on expression in E. coli” value is “soluble”.
